This is an account of results in paper PMC7566476, “MYB61 is regulated by GRF4 and promotes nitrogen utilization and biomass production in rice”.

The target in data set [1] is T1, GST-GRF4 (UniProt Q6ZIK5).
T1 sequence: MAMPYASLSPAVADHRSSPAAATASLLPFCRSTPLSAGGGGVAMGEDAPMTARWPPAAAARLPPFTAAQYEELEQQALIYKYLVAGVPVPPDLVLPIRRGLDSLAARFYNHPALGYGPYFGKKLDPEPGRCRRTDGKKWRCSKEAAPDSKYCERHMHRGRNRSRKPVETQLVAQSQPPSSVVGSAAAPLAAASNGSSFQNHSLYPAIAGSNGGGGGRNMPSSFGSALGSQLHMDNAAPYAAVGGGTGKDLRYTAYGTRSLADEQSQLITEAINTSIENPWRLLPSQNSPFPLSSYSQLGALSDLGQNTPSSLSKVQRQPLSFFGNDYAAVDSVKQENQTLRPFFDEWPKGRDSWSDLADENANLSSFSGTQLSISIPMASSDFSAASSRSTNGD
As to the kind of experiment: EMSA. Particulars: EMSA binding buffer (Beyotime; composition, salt and pH not given), 4 °C; unlabeled competitor 50-, 100- and 500-fold.

Data set [2] addresses T2, GST-GRF4 (UniProt Q6ZIK5 1-394).
T2 sequence: T1 sequence
As to the kind of experiment: EMSA; EMSA binding buffer (Beyotime; composition, salt and pH not given), 4 °C; unlabeled competitor 50-, 100- and 500-fold. The settings on record: protein: recombinant; tags: N-terminal GST (pGEX-6P-1); label: biotin; blunt.

“AATCTGTGCTCCAATCCAAGAAGATCATCTCTGGCACCTCTCAAGATGCTAAGCAATCAGCTGTGAGAACCAGGCCTATGCTGATGATTGCTTTTGCAGAGTTACAAACAGCATGATTTCCTCACTGGCCGTATTCTCGCTCAGAAGCAAATCCCAAT (double strand) [MYB61 promoter P1 fragment]”: the binding result with GST-GRF4 [1] is “no binding”.

B1: MYB61 promoter motif 2 probe (within P8) (dsDNA)
DNA 1: CAAAAAGGCTGCGGTAATTAAGTCACAGTA
DNA 2: TACTGTGACTTAATTACCGCAGCCTTTTTG
For B1, the binding result in the data set with GST-GRF4 [2] is “binds”.
